Series [1] relates to L-fluorogenic substrate 2-aminobenzoyl-Thr-Ile-Nle-Phe(p-NO2)-Gln-Arg.amide.
For series [2], the system named is D-fluorogenic substrate 2-aminobenzoyl-Thr-Ile-Nle-Phe(p-NO2)-Gln-Arg.amide.
Series [3] has as its system D-isomer of the substrate Ac-Thr-Ile-Nle-Nle-Gln-Arg.amide.
The test system of series [4] is L-isomer of the substrate Ac-Thr-Ile-Nle-Nle-Gln-Arg.amide.

“D-[Aba^67.95.167.195]HIV-1 protease (HIV-1 PR)”: the “cleavage of fluorogenic substrate (increase in fluorescence)” value in series [1] was “the D-enzyme cleaved only the corresponding D-substrate (L-substrate not cleaved)”; in series [2], “the D-enzyme cleaved only the corresponding D-substrate”.

Turning to L-[Aba^67.95(CO-S)^51-52]2 HIV-1 PR, in series [1], the “cleavage of the chiral fluorogenic substrate (fluorogenic assay, corresponding chiral substrate)” value was “the cleavage of chiral fluorogenic substrates by the D- and L-HIV-1 PR analogues”. In addition, the results for the “cleavage of hexapeptide substrate (RP HPLC, products identified by ion spray MS)” value in series [3] and in series [4] were “is inactive towards the D-substrate” and “the L-enzyme shows full activity towards the L-substrate”, respectively.

As for D-[Aba^67.95(CO-S)^51-52]2 HIV-1 PR, the “cleavage of hexapeptide substrate (RP HPLC, products identified by ion spray MS)” value was “The D-enzyme cleaves only the D-substrate” in series [3] and “is inactive on the L-substrate” in series [4]. The “cleavage of the chiral fluorogenic substrate (fluorogenic assay, corresponding chiral substrate)” value in series [2] is “the cleavage of chiral fluorogenic substrates by the D- and L-HIV-1 PR analogues”.

Consider “L-[Aba^67.95.167.195]HIV-1 protease (HIV-1 PR)”, for which the figures for the “cleavage of fluorogenic substrate (increase in fluorescence)” value in series [1] and in series [2] were “the L-enzyme cleaved only the L-substrate” and “the L-enzyme cleaved only the L-substrate (D-substrate not cleaved)”, respectively.

For the origin of these results see patent US20040086988.
